Six substances from doi:10.1101/2021.06.21.449279 can be followed below.

Test [1] concerns the target CwlDΔ25-His6 (C. difficile). Nature of the test: SEC. (In general: In gel filtration, larger molecules generally elute earlier.)
Test [2] deals with CwlDΔ25-His6 (C. difficile). The test can be described thus: pull-down.
The target in test [3] is CwlD R169Q-His6 (C. difficile). The test can be described thus: pull-down.
For test [4], the target named is CwlD R169D-His6 (C. difficile). The test can be described thus: pull-down.
The target in test [5] is CwlD_(E199A)-His6 (C. difficile). The test can be described thus: SEC.
Test [6] deals with CwlD_(H49A)-His6 (C. difficile). The test can be described thus: SEC.
Test [7] concerns the target CwlD_(E65A)-His6 (C. difficile). The test can be described thus: SEC.
In test [8] the target is GerSΔ22 (untagged) (C. difficile). The test can be described thus: crystal structure.
In test [9] the target is GerSΔ22-His6 (C. difficile). The test can be described thus: SEC.
Test [10] addresses CwlD_(E199A)-FLAG (C. difficile). Nature of the test: co-IP.
Test [11] deals with FLAG-tagged CwlD_(H49A) (C. difficile). Nature of the test: co-IP.
Test [12] addresses FLAG-tagged CwlD_(R169D) (C. difficile). Nature of the test: co-IP.

What is called stoichiometry N is the number of molecules, sites or subunits per partner or assembly.

CwlDΔ25-His6 (domain or fragment) showed a stoichiometry N in [1] of 2.
“GerS D106A (untagged) (domain or fragment)” had a reduction of GerS co-purification against the wild-type complex in test [2] of 90%.
For the substance “GerS D106R (untagged) (domain or fragment)”, the reduction of GerS co-purification against the wild-type complex in test [2] came out at 90%.
As to GerSΔ22 (untagged) (domain or fragment), the reduction of GerS co-purification against the wild-type complex in test [3] and in [4] was 90% throughout. The stoichiometry N in test [5] amounted to 1; in test [1], 1; in test [6] it was 1; in [7], 1; in test [8] it was 2.
For GerSΔ22-His6 (domain or fragment), in [9], the stoichiometry N amounted to 2.
Take “cleaved form of GerS (untagged, in sporulating C. difficile) (natural protein)”: the decrease of the interaction against the wild-type CwlD:GerS complex in [10] was found to be 40%. Besides, the fold reduction of GerS pulled down against wild-type FLAG-tagged CwlD in test [11] and in [12] was 5 fold in each case.
